± gives the standard deviation of the averaged measurements.

For one data set, the system named is MCF7. As to the kind of experiment: percentage of EdU-negative (G0-arrested) nuclei per well, 72 h; higher = more G0 arrest. The conditions noted are these: reference: sequence is the full UniProt precursor, the tested protein was the secreted form or ectodomain.
The test system of the next data set is hTERT-HMEC. The description is as above. The note with it: reference: sequence is the full UniProt precursor, the tested protein was the secreted form or ectodomain.
Setting [1] is: protein concentration 0.00525 µM.
Where [2] appears, read: protein concentration 0.0525 µM.
Setting [3] is: protein concentration 0.0357143 µM.
Setting [4] is: protein concentration 0.357143 µM.
[5] abbreviates: protein concentration 0.0225 µM.
Setting [6] is: protein concentration 0.03125 µM.
[7] abbreviates: protein concentration 0.3125 µM.
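Also: secreted proteins added to cultured cells, EdU pulse at the end, nuclei found by Hoechst imaging, EdU status from nuclear versus surrounding ring intensity ratio, PBS as neutral control.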

Sequence of Q8IWL2 (chain, as listed by the source): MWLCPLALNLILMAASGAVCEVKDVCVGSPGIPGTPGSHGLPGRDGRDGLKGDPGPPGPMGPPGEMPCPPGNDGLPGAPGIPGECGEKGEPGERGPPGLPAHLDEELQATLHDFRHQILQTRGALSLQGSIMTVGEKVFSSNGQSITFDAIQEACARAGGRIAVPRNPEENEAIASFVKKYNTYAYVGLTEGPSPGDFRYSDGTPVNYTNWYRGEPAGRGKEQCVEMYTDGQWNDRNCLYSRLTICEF

As to “MEDLCVANTLFALNLFKHLAKASPTQNLFLSPWSISSTMAMVYMGSRGSTEDQMAKVLQFNEVGANAVTPMTPENFTSCGFMQQIQKGSYPDAILQAQAADKIHSSFRSLSSAINASTGNYLLESVNKLFGEKSASFREEYIRLCQKYYSSEPQAVDFLECAEEARKKINSWVKTQTKGKIPNLLPEGSVDGDTRMVLVNAVYFKGKWKTPFEKKLNGLYPFRVNSAQRTPVQMMYLREKLNIGYIEDLKAQILELPYAGDVSMFLLLPDEIADVSTGLELLESEITYDKLNKWTSKDKMAEDEVEVYIPQFKLEEHYELRSILRSMGMEDAFNKGRANFSGMSERNDLFLSEVFHQAMVDVNEEGTEAAAGTGGVMTGRTGHGGPQFVADHPFLFLIMHKITNCILFFGRFSSP”, the “percentage of EdU-negative” value is 24.7 ± 0.25% in the data set with MCF7 (setting [1]), 27.383 ± 0.014% in the data set with MCF7 (setting [2]), 5.431 ± 0.036% with hTERT-HMEC (setting [1]) and 5.26 ± 1.3% with hTERT-HMEC (setting [2]).

Regarding “MWLLVSVILISRISSVGGEAMFCDFPKINHGILYDEEKYKPFSQVPTGEVFYYSCEYNFVSPSKSFWTRITCAEEGWSPTPKCLRLCFFPFVENGHSESSGQTHLEGDTVQIICNTGYRLQNNENNISCVERGWSTPPKCRSTISAEKCGPPPPIDNGDITSFLLSVYAPGSSVEYQCQNLYQLEGNNQITCRNGQWSEPPKCLDPCVISQEIMEKYNIKLKWTNQQKLYSRTGDIVEFVCKSGYHPTKSHSFRAMCQNGKLVYPSCEEK”, the “percentage of EdU-negative” value in the data set with MCF7 (setting [3]) worked out at 26.5 ± 2.9%; in the data set on MCF7 (setting [4]), 27.9 ± 1.9%; in the data set with hTERT-HMEC (setting [3]), 5.7 ± 0.61%; in the data set with hTERT-HMEC (setting [4]), 17.5 ± 3.6%.

Regarding “MGCWGQLLVWFGAAGAILCSSPGSQETFLRSSPLPLASPSPRDPKVSAPPSILEPASPLNSPGTEGSWLFSTCGASGRHGPTQTQCDGAYAGTSVVVTVGAAGQLRGVQLWRVPGPGQYLISAYGAAGGKGAKNHLSRAHGVFVSAIFSLGLGESLYILVGQQGEDACPGGSPESQLVCLGESRAVEEHAAMDGSEGVPGSRRWAGGGGGGGGATYVFRVRAGELEPLLVAAGGGGRAYLRPRDRGRTQASPEKLENRSEAPGSGGRGGAAGGGGGWTSRAPSPQAGRSLQEGAEGGQGCSEAWATLGWAAAGGFGGGGGACTAGGGGGGYRGGDASETDNLWADGEDGVSFIHPSSELFLQPLAVTENHGEVEIRRHLNCSHCPLRDCQWQAELQLAECLCPEGMELAVDNVTCMDLHKPPGPLVLMVAVVATSTLSLLMVCGVLILVKQKKWQGLQEMRLPSPELELSKLRTSAIRTAPNPYYCQVGLGPAQSWPLPPGVTEVSPANVTLLRALGHGAFGEVYEGLVIGLPGDSSPLQVAIKTLPELCSPQDELDFLMEALIISKFRHQNIVRCVGLSLRATPRLILLELMSGGDMKSFLRHSRPHLGQPSPLVMRDLLQLAQDIAQGCHYLEENHFIHRDIAARNCLLSCAGPSRVAKIGDFGMARDIYRASYYRRGDRALLPVKWMPPEAFLEGIFTSKTDSWSFGVLLWEIFSLGYMPYPGRTNQEVLDFVVGGGRMDPPRGCPGPVYRIMTQCWQHEPELRPSFASILERLQYCTQDPDVLNSLLPMELGPTPEEEGTSGLGNRSLECLRPPQPQELSPEKLKSWGGSPLGPWLSSGLKPLKSRGLQPQNLWNPTYRS”, the “percentage of EdU-negative” value in the data set with MCF7 (setting [5]) came to 26.78 ± 0.18%; in the data set with MCF7 (protein concentration 0.225 µM), 28.3 ± 2.3%; with hTERT-HMEC (setting [5]) it was 5.75 ± 1.3%; in the data set on hTERT-HMEC (protein concentration 0.225 µM), 10.5 ± 0.56%.

With “MALHIHEACILLLVIPGLVTSAAISHEDYPADEGDQISSNDNLIFDDYRGKGCVDDSGFVYKLGERFFPGHSNCPCVCALDGPVCDQPECPKIHPKCTKVEHNGCCPECKEVKNFCEYHGKNYKILEEFKPSPCEWCRCEPSNEVHCVVADCAVPECVNPVYEPEQCCPVCKNGPNCFAGTTIIPAGIEVKVDECNICHCHNGDWWKPAQCSKRECQGKQTV [B2RUY7]”, the “percentage of EdU-negative” value in the data set with MCF7 (setting [5]) amounted to 26.9 ± 1.9%; in the data set with MCF7 (protein concentration 0.225 µM), 25.9 ± 1.7%; in the data set on hTERT-HMEC (setting [5]), 5.12 ± 0.14%; with hTERT-HMEC (protein concentration 0.225 µM) it was 5.63 ± 0.95%.

Consider “MWLGRRALCALVLLLACASLGLLYASTRDAPGLRLPLAPWAPPQSPRRPELPDLAPEPRYAHIPVRIKEQVVGLLAWNNCSCESSGGGLPLPFQKQVRAIDLTKAFDPAELRAASATREQEFQAFLSRSQSPADQLLIAPANSPLQYPLQGVEVQPLRSILVPGLSLQAASGQEVYQVNLTASLGTWDVAGEVTGVTLTGEGQADLTLVSPGLDQLNRQLQLVTYSSRSYQTNTADTVRFSTEGHEAAFTIRIRHPPNPRLYPPGSLPQGAQYNISALVTIATKTFLRYDRLRALITSIRRFYPTVTVVIADDSDKPERVSGPYVEHYLMPFGKGWFAGRNLAVSQVTTKYVLWVDDDFVFTARTRLERLVDVLERTPLDLVGGAVREISGFATTYRQLLSVEPGAPGLGNCLRQRRGFHHELVGFPGCVVTDGVVNFFLARTDKVREVGFDPRLSRVAHLEFFLDGLGSLRVGSCSDVVVDHASKLKLPWTSRDAGAETYARYRYPGSLDESQMAKHRLLFFKHRLQCMTSQ”, for which the “percentage of EdU-negative” value was 24.7 ± 5.6% in the data set with MCF7 (setting [6]), 27 ± 3.4% with MCF7 (setting [7]), 5.346 ± 0.02% in the data set with hTERT-HMEC (setting [6]) and 5.55 ± 0.9% with hTERT-HMEC (setting [7]).

Consider “MGPLSAPPCTEHIKWKGLLLTALLLNFWNLPTTAQVMIEAQPPKVSEGKDVLLLVHNLPQNLTGYIWYKGQIRDLYHYITSYVVDGQIIIYGPAYSGRETVYSNASLLIQNVTREDAGSYTLHIIKRGDGTRGVTGYFTFTLYLETPKPSISSSNLNPREAMETVILTCNPETPDASYLWWMNGQSLPMTHRMQLSETNRTLFLFGVTKYTAGPYECEIWNSGSASRSDPVTLNLLHGPDLPRIFPSVTSYYSGENLDLSCFANSNPPAQYSWTINGKFQLSGQKLFIPQITPKHNGLYACSARNSATGEESSTSLTIRVIAPPGLGTFAFNNPT [Q9UQ72]”, for which the “percentage of EdU-negative” value was 24.9 ± 4.1% in the data set with MCF7 (setting [6]), 26.7 ± 1.1% in the data set on MCF7 (setting [7]), 4.83 ± 0.7% with hTERT-HMEC (setting [6]) and 5.46 ± 1.1% with hTERT-HMEC (setting [7]).

As to Q8IWL2, the “percentage of EdU-negative” value in the data set on MCF7 (setting [6]) stood at 25.4 ± 0.46%; in the data set on MCF7 (setting [7]) it was 26.7 ± 0.54%; in the data set on hTERT-HMEC (setting [6]) it was 5.36 ± 0.08%; in the data set on hTERT-HMEC (setting [7]), 6.18 ± 0.17%.

The values are drawn from the supplement of paper PMC11316812.
